Reference: the supplement of paper PMC10724198
± gives the standard deviation of the averaged measurements.

Test system: Saccharomyces cerevisiae
Test: protein stability index of tFT-peptide fusion (C-terminal peptide) (PSI (0-1 scale)); higher = more stable (slower turnover)
Conditions: genetic background: wild type; temperature: 30 C
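Also: PSI is a weighted mean of sequencing reads over stability bins, variants kept only with over 10 reads, mCherry proximal and sfGFP distal, peptide attached via GGGS linker.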

Sequence | protein stability index
LEGGVREMRGDG | 0.641 ± 0.053
LEPHEIKERRPL | 0.721 ± 0.066
LEQNCYYGEFSS | 0.665 ± 0.035
LETEVDIYWLYR | 0.605 ± 0.048
LEVHQGYLSSCH | 0.676 ± 0.12
LFALSVHTHPYP | 0.73 ± 0.024
LFDRRDTSTLLL | 0.707 ± 0.032
LFENNGIKCHKR | 0.683 ± 0.013
LFFGVEWWRFEG | 0.5604 ± 0.0023
LFFLFSPFSRLP | 0.786 ± 0.089
LFGAGGGGVEVG | 0.672 ± 0.14
LFGPRCTSSSAV | 0.689 ± 0.015
LFGSMGVLGIGR | 0.672 ± 0.061
LFIGKEGWVACL | 0.562 ± 0.019
LFIYSMKRFILE | 0.631 ± 0.052
LFKKVGGRSLVW | 0.6813 ± 0.0036
LFLAPFRLVLGV | 0.518 ± 0.01
LFLLSLLDWGFR | 0.661 ± 0.072
LFLPPLFRRSPF | 0.684 ± 0.018
LFLWRFPSPFRA | 0.661 ± 0.036
LFPCPLRPGCLP | 0.699 ± 0.099
LFPLAPRRLAPP | 0.628 ± 0.069
LFPLPHPLPVSL | 0.6146 ± 0.0053
LFPPPPPSPRCL | 0.637 ± 0.055
LFRPFATALFPL | 0.747 ± 0.066
LFRWLLRLVISH | 0.608 ± 0.021

Sequence | protein stability index
LFSLPPPSPPPR | 0.694 ± 0.03
LFTPLLVPYPTP | 0.522 ± 0.0028
LFVYSSVALSSQ | 0.59301 ± 0.00049
LFYFFGKRPAHL | 0.781 ± 0.045
LGAHLSTAPPPP | 0.655 ± 0.022
LGDVRRENKQLP | 0.6981 ± 0.003
LGFVGVRSVRSG | 0.667 ± 0.059
LGGGGPSVREGE | 0.679 ± 0.05
LGGGGVGGVRGV | 0.6675 ± 0.0046
LGGLLLCLGLSG | 0.674 ± 0.058
LGGRGGACRRDR | 0.7 ± 0.019
LGHQFKGTILRV | 0.73 ± 0.059
LGKVAGLGAGRP | 0.719 ± 0.034
LGPFTEAVSRHC | 0.67 ± 0.021
LGQRFRLFVSFF | 0.468 ± 0.077
LGRAGMWTRRGL | 0.663 ± 0.034
LGRCRQTERETS | 0.649 ± 0.089
LGRGRWSVLVVR | 0.5287 ± 0.0014
LGSFLPLLPSPP | 0.674 ± 0.041
LGSGVQGEGRGW | 0.678 ± 0.042
LGTVPLLPPRSP | 0.713 ± 0.028
LGVIHPSVYFCL | 0.5416 ± 0.0023
LGVMLLEGWRVM | 0.656 ± 0.018
LGVPGSGDGEWW | 0.592 ± 0.029
LGVVSCAVVGFV | 0.625 ± 0.041
LGWGGGGPLSGG | 0.7197 ± 0.0054

Sequence | protein stability index
LGWWWVWSWGRG | 0.668 ± 0.04
LHGFYSKKAINR | 0.701 ± 0.031
LHGLSGRLLFDV | 0.574 ± 0.2
LHHPPAPPLPPP | 0.695 ± 0.018
LHLDTMPQEKNN | 0.668 ± 0.036
LHPAPPAAPTRP | 0.711 ± 0.016
LHPRPPLFLHPL | 0.692 ± 0.015
LHRFYVGQLVVN | 0.522 ± 0.0092
LHSNFGSSVFSL | 0.713 ± 0.012
LHSPWPFSAPGI | 0.855 ± 0.2
LIGKNNTSIQLK | 0.742 ± 0.16
LIIGYFSSRVCL | 0.61 ± 0.074
LILRPLPPPLPP | 0.5623 ± 0.0014
LIMLNNIENSSI | 0.678 ± 0.01
LIQHVTKLTPFF | 0.694 ± 0.012
LIRFFSSSRPGS | 0.671 ± 0.15
LIRPSAPSHRSP | 0.798 ± 0.025
LISFSGFSPFLW | 0.7678 ± 0.0027
LISISNINEGVI | 0.688 ± 0.037
LISPPAQLAFVP | 0.696 ± 0.016
LISRFFPSRSAP | 0.854 ± 0.021
LIVSTAGVTQFS | 0.66 ± 0.012
LIWHTLSTVIPF | 0.657 ± 0.029
LKNKVDGKVSGK | 0.6014 ± 0.0045
LKPGYQGQHKED | 0.7 ± 0.029
LKPKLDFHIWDV | 0.67 ± 0.1

Sequence | protein stability index
LKQKMKETGRRR | 0.666 ± 0.058
LKRSDFSFLEKV | 0.701 ± 0.075
LKSGAWFFRIGY | 0.66 ± 0.018
LKYETGTILRMT | 0.563 ± 0.013
LLAFLPPPPCPP | 0.709 ± 0.036
LLATCGAIHTFC | 0.637 ± 0.01
LLCFGGRGPLAD | 0.713 ± 0.028
LLCTSSGYWAWK | 0.699 ± 0.0087
LLFFRSPFSLVS | 0.6465 ± 0.0059
LLFLGSSLRDTF | 0.759 ± 0.0098
LLGGLHIPHPLR | 0.681 ± 0.052
LLGSFSLSMSSL | 0.717 ± 0.021
LLINTARWSEAG | 0.662 ± 0.049
LLLLDPPLPPPP | 0.684 ± 0.015
LLLLRSPPPTPP | 0.6722 ± 0.0021
LLLLSTCSPLLL | 0.618 ± 0.021
LLLPPRPPPSVP | 0.742 ± 0.15
LLLQLSPLLTSL | 0.646 ± 0.019
LLLSSPPFPALL | 0.638 ± 0.0074
LLPLPSPLPACP | 0.709 ± 0.02
LLPLTWTTVQGP | 0.694 ± 0.027
LLPPPPVPTPDR | 0.659 ± 0.12
LLPPRPSSSPPS | 0.704 ± 0.026
LLPSLFLLPPSA | 0.743 ± 0.094
LLPSPRSSPPPS | 0.675 ± 0.091
LLQRFTTVPTLL | 0.616 ± 0.083

Sequence | protein stability index
LLRLTGRRHVGG | 0.748 ± 0.2
LLRPLSPIDVLR | 0.702 ± 0.069
LLRPYYHILVPL | 0.695 ± 0.0024
LLRRFSLLPPPL | 0.667 ± 0.035
LLRSCLTLFARR | 0.668 ± 0.021
LLRVPPGPIFPS | 0.661 ± 0.064
LLSCLDILFFFI | 0.609 ± 0.016
LLSGRDAACRGG | 0.663 ± 0.027
LLSLLQLPASAS | 0.605 ± 0.03
LLSLSCLPLHFR | 0.574 ± 0.088
LLSPAPPLPPAP | 0.666 ± 0.057
LLVVSIGSCFFG | 0.572 ± 0.065
LMGGMIRDMVWG | 0.643 ± 0.13
LMRGLYAIPGKF | 0.776 ± 0.019
LMVGFRSFNVKC | 0.618 ± 0.051
LNLRTFATFFRY | 0.635 ± 0.077
LNLTAPPPPHLV | 0.6721 ± 0.0066
LNLWVVYRLLGV | 0.599 ± 0.038
LNPPFICFAWLY | 0.598 ± 0.076
LPAAPPPPPLPP | 0.742 ± 0.042
LPASPSIAPPPT | 0.636 ± 0.06
LPATLPPPPAPP | 0.705 ± 0.036
LPAWSYPSGWLL | 0.718 ± 0.044
LPCCYVWFFLSL | 0.499 ± 0.023
LPCRRPTPPFPQ | 0.752 ± 0.024
LPCSTLPWAPLT | 0.565 ± 0.023

Sequence | protein stability index
LPFLVSPPLFRT | 0.664 ± 0.063
LPFPLGDSRGSC | 0.697 ± 0.011
LPFPPPIIATPP | 0.665 ± 0.13
LPFPSPSPPFPF | 0.63 ± 0.094
LPGAEASRCTST | 0.657 ± 0.041
LPGKVGNAPFDQ | 0.6913 ± 0.0062
LPHPPPLPTPPP | 0.739 ± 0.13
LPHVALFLLPAL | 0.638 ± 0.0064
LPLLALLDVPLP | 0.683 ± 0.018
LPLPHPRLPPRP | 0.684 ± 0.049
LPLPTSPHPRPA | 0.61 ± 0.046
LPLRAHPTISFP | 0.751 ± 0.05
LPNTWLTSLIHQ | 0.701 ± 0.33
LPPAPPLPPPPT | 0.683 ± 0.044
LPPARRHPSVYR | 0.669 ± 0.064
LPPHPPPCPPLL | 0.733 ± 0.088
LPPLAPASHHLC | 0.493 ± 0.016
LPPLAYALLPPL | 0.571 ± 0.028
LPPLPLPPAPSA | 0.621 ± 0.042
LPPLPPLPPPPH | 0.686 ± 0.076
LPPLPPPPLLFP | 0.674 ± 0.002
LPPPAPSPAPPH | 0.593 ± 0.12
LPPPGSSPRATS | 0.718 ± 0.06
LPPPLPPLLPLP | 0.675 ± 0.014
LPPPLPVRSPLF | 0.68 ± 0.012
LPPPPIAPPLTP | 0.689 ± 0.063

Sequence | protein stability index
LPPPPRPPLPSP | 0.737 ± 0.068
LPPPSPSPLFPP | 0.669 ± 0.052
LPPPYSHTPPPR | 0.581 ± 0.031
LPPQRPSQYLLH | 0.786 ± 0.11
LPPRPRPLPPSP | 0.589 ± 0.0077
LPPRSRHPSPYA | 0.654 ± 0.016
LPPSPHPPLPHL | 0.886 ± 0.011
LPPSPLALVSSS | 0.637 ± 0.021
LPPTPPLPRSLP | 0.716 ± 0.066
LPPTSPPPSSPP | 0.7007 ± 0.0041
LPRAAISRKFAT | 0.63 ± 0.037
LPRLPVSPLPLP | 0.681 ± 0.057
LPRPLTIKQVAG | 0.56 ± 0.021
LPRPPPTSSTPL | 0.784 ± 0.16
LPRRDPGPSKEP | 0.66644 ± 0.00038
LPSGVPPPPPLP | 0.695 ± 0.063
LPSLPPRTSPPS | 0.761 ± 0.027
LPSLRFLFPLVP | 0.671 ± 0.036
LPSLSPPPSLPL | 0.763 ± 0.042
LPSPLPPPAWTP | 0.735 ± 0.029
LPSPLPPPPPAH | 0.707 ± 0.0082
LPSPPPPRSLLP | 0.6657 ± 0.0016
LPSPPPRPPHHR | 0.672 ± 0.025
LPSPTTPRSPPP | 0.729 ± 0.1
LPSPYPMPPPLP | 0.736 ± 0.018
LPSSLFLCSLFC | 0.655 ± 0.026

Sequence | protein stability index
LPVLPPLSPSPF | 0.665 ± 0.011
LPVPLAAFTTLH | 0.711 ± 0.084
LPVRLPVSGSSS | 0.8296 ± 0.0057
LQAALVFPRSSL | 0.7225 ± 0.00052
LQPLPPYHSIQL | 0.703 ± 0.012
LQRPDHPTPTPP | 0.712 ± 0.017
LQSLRSEVIHSL | 0.651 ± 0.095
LQTLDVFTTMKL | 0.58 ± 0.045
LRAWWTPRRGRW | 0.769 ± 0.052
LRCLFAWVCECG | 0.635 ± 0.083
LRCLLAHIAGRG | 0.67065 ± 0.00044
LRCSKRNKSMGQ | 0.648 ± 0.048
LRECRSWGGAAG | 0.653 ± 0.029
LRFRTNYFFSRV | 0.665 ± 0.063
LRGFGLGLRFFF | 0.65 ± 0.013
LRGGGKRREVMG | 0.702 ± 0.099
LRGSCFSLWLVF | 0.526 ± 0.031
LRGVGAGPEDVG | 0.694 ± 0.017
LRHVARCARGGA | 0.647 ± 0.095
LRKCVKAECKSQ | 0.684 ± 0.037
